Results published in IntAct's records for PubMed 17548836.

B1: Bone morphogenetic protein 1 (Homo sapiens), P13497 (parent)
chain: MPGVARLPLLLGLLLLPRPGRPLDLADYTYDLAEEDDSEPLNYKDPCKAAAFLGDIALDEEDLRAFQVQQAVDLRRHTARKSSIKAAVPGNTSTPSCQSTNGQPQRGACGRWRGRSRSRRAATSRPERVWPDGVIPFVIGGNFTGSQRAVFRQAMRHWEKHTCVTFLERTDEDSYIVFTYRPCGCCSYVGRRGGGPQAISIGKNCDKFGIVVHELGHVVGFWHEHTRPDRDRHVSIVRENIQPGQEYNFLKMEPQEVESLGETYDFDSIMHYARNTFSRGIFLDTIVPKYEVNGVKPPIGQRTRLSKGDIAQARKLYKCPACGETLQDSTGNFSSPEYPNGYSAHMHCVWRISVTPGEKIILNFTSLDLYRSRLCWYDYVEVRDGFWRKAPLRGRFCGSKLPEPIVSTDSRLWVEFRSSSNWVGKGFFAVYEAICGGDVKKDYGHIQSPNYPDDYRPSKVCIWRIQVSEGFHVGLTFQSFEIERHDSCAYDYLEVRDGHSESSTLIGRYCGYEKPDDIKSTSSRLWLKFVSDGSINKAGFAVNFFKEVDECSRPNRGGCEQRCLNTLGSYKCSCDPGYELAPDKRRCEAACGGFLTKLNGSITSPGWPKEYPPNKNCIWQLVAPTQYRISLQFDFFETEGNDVCKYDFVEVRSGLTADSKLHGKFCGSEKPEVITSQYNNMRVEFKSDNTVSKKGFKAHFFSDKDECSKDNGGCQQDCVNTFGSYECQCRSGFVLHDNKHDCKEAGCDHKVTSTSGTITSPNWPDKYPSKKECTWAISSTPGHRVKLTFMEMDIESQPECAYDHLEVFDGRDAKAPVLGRFCGSKKPEPVLATGSRMFLRFYSDNSVQRKGFQASHATECGGQVRADVKTKDLYSHAQFGDNNYPGGVDCEWVIVAEEGYGVELVFQTFEVEEETDCGYDYMELFDGYDSTAPRLGRYCGSGPPEEVYSAGDSVLVKFHSDDTITKKGFHLRYTSTKFQDTLHSRK
B2: Bone morphogenetic protein 1 (Homo sapiens), P13497 (parent)
chain: B1 chain
partner: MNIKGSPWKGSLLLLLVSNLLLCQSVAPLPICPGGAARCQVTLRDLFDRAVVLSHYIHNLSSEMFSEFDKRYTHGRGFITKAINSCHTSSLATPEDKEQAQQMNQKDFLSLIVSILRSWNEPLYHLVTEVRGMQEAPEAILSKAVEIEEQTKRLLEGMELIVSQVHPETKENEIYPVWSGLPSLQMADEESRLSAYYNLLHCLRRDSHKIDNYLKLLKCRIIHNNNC

Variants of: B1
Conditions: with soma_human GH1, P01241
Sequence of soma_human GH1, P01241 (P01241 whole entry): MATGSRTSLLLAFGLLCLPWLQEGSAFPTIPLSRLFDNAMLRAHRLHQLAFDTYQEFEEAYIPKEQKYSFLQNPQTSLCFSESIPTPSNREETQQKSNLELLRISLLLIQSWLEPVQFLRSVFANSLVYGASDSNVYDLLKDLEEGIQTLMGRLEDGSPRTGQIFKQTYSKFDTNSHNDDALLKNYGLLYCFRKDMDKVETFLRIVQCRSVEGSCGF

| Variant | effect of a mutation on the interaction |
| --- | --- |
| E214A | disrupting interaction strength |

Variants of: B2
Conditions: with prl_human PRL

| Variant | effect of a mutation on the interaction |
| --- | --- |
| E214A | disrupting interaction strength |
